Laboratory results reported in publication PMC3351185 (Nucleic Acids Research, 2011).

Molecular target: T1, ϕ29 DNA polymerase (wild-type) (bacteriophage ϕ29, UniProt P03680 1-575)
T1 sequence: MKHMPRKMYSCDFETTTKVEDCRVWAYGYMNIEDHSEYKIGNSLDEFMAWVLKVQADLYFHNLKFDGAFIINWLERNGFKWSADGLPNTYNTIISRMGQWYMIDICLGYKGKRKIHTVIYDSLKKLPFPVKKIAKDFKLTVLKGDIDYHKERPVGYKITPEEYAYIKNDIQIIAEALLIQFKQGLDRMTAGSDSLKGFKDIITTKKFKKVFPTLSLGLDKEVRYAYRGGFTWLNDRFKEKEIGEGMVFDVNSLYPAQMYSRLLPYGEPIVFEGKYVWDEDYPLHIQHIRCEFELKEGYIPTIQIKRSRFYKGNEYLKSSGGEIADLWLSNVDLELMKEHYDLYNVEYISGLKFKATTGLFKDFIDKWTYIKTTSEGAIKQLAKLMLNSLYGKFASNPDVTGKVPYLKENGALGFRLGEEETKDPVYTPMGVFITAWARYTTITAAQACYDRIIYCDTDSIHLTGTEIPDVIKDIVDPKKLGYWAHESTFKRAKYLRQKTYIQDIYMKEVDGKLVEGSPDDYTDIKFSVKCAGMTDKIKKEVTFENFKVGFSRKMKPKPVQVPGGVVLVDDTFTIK
Assay: cell-based or functional assay

B1: ϕ29 terminal protein mutant R158A (natural protein, bacteriophage ϕ29, UniProt P03681 1-266, looked up)
chain: MARSPRIRIKDNDKAEYARLVKNTKAKIARTKKKYGVDLTAEIDIPDLDSFETRAQFNKWKEQASSFTNRANMRYQFEKNAYGVVASKAKIAEIERNTKEVQRLVDEKIKAMKDKEYYAGGKPQGTIEQRIAMTSPAHVTGINRPHDFDFSKVRSYSALRTLEESMEMRTDPQYYEKKMIQLQLNFIKSVEGSFNSFDAADELIEELKKIPPDDFYELFLRISEISFEEFDSEGNTVENVEGNVYKILSYLEQYRRGDFDLSLKGF
In the case of B1, the “TP-DNA amplification (%), activity with respect to the wild-type TP” value is reported as 1 % of wild-type TP and the “TP-DNA replication, activity with respect to the wild-type TP” value is reported as 17 % of wild-type TP.
